# From doi:10.1101/2024.09.12.612748, “Analysis of polyclonal and monoclonal antibody to the influenza virus nucleoprotein in different oligomeric states” (bioRxiv, 2024)
# What was measured:
# [1] = target: T1, NP in H1N1 viral lysate (A/Puerto Rico/8/34) (Influenza A virus (strain A/Puerto …, UniProt P03466)); experiment: immunoblot; conditions: one partner purified
# T1 construct: also called viral NP; NP from lysed influenza virus
# [2] = target: T2, recombinant NP of influenza A/PR/8/34 (H1N1) purified from bacteria (Influenza A virus (strain A/Puerto …, UniProt P03466)); experiment: immunoblot; conditions: both partners purified
# T2 construct: source: E. coli Rosetta 2 (DE3), purified (His GraviTrap TALON)
# [3] = target: T3, recombinant nucleoprotein (NP) from influenza A/Brisbane/10/2007 (H3N2) (Influenza A virus A/Brisbane/10/2007 …); experiment: BLI; Octet Red 96; […] (AMC) […] (6.25–200 nM), 1X PBS, association 300 s, dissociation 3,600 s, global 1:1 fit; conditions: both partners purified
# T3 construct: also called rNP; rNP-A
binder,measurement,setting,value
"anti-NP mouse monoclonal antibody HB65 (antibody, V domains shown, also called mAb HB65; IgG HB65; copies: 2 + 2) VH: EVKLVESGGALVNPGGSLKLSCAASGFIFSSYAMSWIRQTPEKRLEWVASTSGGGTTYYLDSVRGRFTISRDNARRILYLQMTSLRSEDTAIYFCGRDGNWFTSWGQGTLVTVSI VL: NIVMTQSPKSMSMSVGERVTLTCKASENVVTYVSWYQQKPEQSPKLLIYGASNRYTGVPDRFTGSGSATDFTLTISSVQAEDLADYHCGQGYSYPYTFGGGTKLEIK",binding result,[1],binds
same,binding result,[2],binds
same,Kd,[3],120 ± 21 nM
